Data taken from patent US20230220439A1 (HUBEL UNIVERSITY, published 2023).

Tests used:
Assay in all cases: Native-PAGE of mixed CL and Im proteins, 30 min at room temperature
[1] = target: T1, Im8 protein (Escherichia coli, UniProt P09881 1-85)
T1 construct: Expressed from pET23a in E. coli BL21(DE3) and purified on nickel beads; a tag is not described
T1 sequence: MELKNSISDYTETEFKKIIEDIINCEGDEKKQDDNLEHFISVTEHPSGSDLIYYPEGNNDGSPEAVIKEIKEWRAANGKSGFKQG

[2] = target: T2, Im2 protein (Escherichia coli, UniProt P04482 1-86)
T2 construct: Expressed from pET23a in E. coli BL21(DE3) and purified on nickel beads; a tag is not described; also called immunity 2
T2 sequence: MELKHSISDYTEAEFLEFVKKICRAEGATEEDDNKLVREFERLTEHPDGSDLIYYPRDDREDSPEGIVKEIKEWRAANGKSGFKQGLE

[3] = target: T3, Im7 protein (Escherichia coli, UniProt Q03708 1-87)
T3 construct: Expressed from pET23a in E. coli BL21(DE3) and purified on nickel beads; a tag is not described
T3 sequence: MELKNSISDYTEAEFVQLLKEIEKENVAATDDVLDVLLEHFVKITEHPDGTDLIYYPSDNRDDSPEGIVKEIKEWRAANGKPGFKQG

[4] = target: T4, Im9 protein (Escherichia coli, UniProt P13479 1-86)
T4 construct: Expressed from pET23a in E. coli BL21(DE3) and purified on nickel beads; a tag is not described
T4 sequence (P13479 whole entry): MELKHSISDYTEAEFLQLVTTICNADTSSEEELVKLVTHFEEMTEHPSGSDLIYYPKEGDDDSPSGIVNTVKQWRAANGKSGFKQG

B1: CL8 protein (other)
chain: MSKSNEPGKATGEGKPVGDKWLDDAGKDSGAPIPDRIADKLRDKEFENFDDFRETFWEEVSKDPELSKQFNPGNKKRLSQGLAPRARNKDTVGGRRSFELNHQKPIEQDGGVYDMDNLRITTPKRNIDIEG
notes: Expressed from pET23a in E. coli BL21(DE3) and purified on nickel beads; a tag is not described
binding result [1]: binds

B2: CL2 protein (other)
chain: MSKSNEPGKATGEGKPVGDKWLDDAGKDSGAPIPDRIADKLRDKEFENFDDFRETFWEEVSKDPDLSKQFKGSNKTNIQKGKAPFARKKDQVGGRERFELNHQKPIEQDGGVYDMNNIRVTTPKRNIDIEG
notes: as for B1
binding result [2]: binds

B3: CL7 protein (other)
chain: MSKSNEPGKATGEGKPVNNKWLNNAGKDLGSPVPDRIANKLRDKEFESFDDFRETFWEEVSKDPELSKQFSRNNNDRMKVGKAPKTRTQDVSGKRTSFELNHQKPIEQNGGVYDMDNISVVTPKRNIDIEG
notes: as for B1
binding result [3]: binds

B4: CL9 protein (other)
chain: MSKSNEPGKATGEGKPVGDKWLDDAGKDSGAPIPDRIADKLRDKEFESFDDFRETVWEEVSKDPELSKNLNPSNKSSVSKGYSPFTPKNQQVGGRKVYELNHQKPIEQGGEVYDMDNIRVTTPKRNIDIEG
notes: as for B1
binding result [4]: binds
